B1: CPEB3 Ribozyme (parent)
chain: UAACAGGGGGCCACAGCAGAAGCGUUCACGUCGCAGCCCCUGUCAGAUUCUGGUGAAUCUGCGAAUUCUGCUGUAUAUCUC

The data set covers variants of B1. Description: self-cleavage, relative activity (ratio to wild type); higher = more cleavage; in vitro, sequencing. Summed up: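 Barcoded CPEB3 ribozyme mutants, produced by rounds of error-prone PCR, self-cleaved while being transcribed with T7 RNA polymerase for 5 hours at 37°C and during a subsequent 15 min DNase I step before EDTA was added. Sequencing of template-switched cDNA on Illumina gave cleaved and total reads, and DNA sequencing assigned barcodes to variants. Each variant's relative activity is its cleaved/total read fraction divided by the unmutated ribozyme's fraction, averaged across three batches. A variant needed a minimum of 5 reads.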
UAACAGGGGGACACAGCAGAAGCGUUCACGUCGCAGCCCCUGUCAGAUUCUGGUGAAUCUGCGAAUUCUGCUGUGUAUCUC [C11A A75G]: the self-cleavage was 0.36.
For UAACAGGGGGACACAGCAGAAGCGUUCACGUCGCAGCCCCUGUCAGAUUCUGGUGAAUCUGCGAAUUCUGCUGUUUAUCUC [C11A A75U] the value was 0.4; for UAACAGGGGGACACAGCAGAAGCGUUCACGUCGCAGCCCCUGUCAGAUUCUGGUGAAUCUGCGAAUUCUGCUCUAUAUCUC [C11A G73C], 0.87.
Take UAACAGGGGGACACAGCAGAAGCGUUCACGUCGCAGCCCCUGUCAGAUUCUGGUGAAUCUGCGAAUUCUGCUAUAUAUCUC [C11A G73A]: the self-cleavage was 1.07.
For UAACAGGGGGACACAGCAGAAGCGUUCACGUCGCAGCCCCAGUCAGAUUCUGGUGAAUCUGCGAAUUCUGCUGUAUAUCUC [C11A U41A], the self-cleavage was determined as 0.33.
Take UAACAGGGGGACACAGCAGAAGCGUUCACGUCGCAGCCCCCGUCAGAUUCUGGUGAAUCUGCGAAUUCUGCUGUAUAUCUC [C11A U41C]: the self-cleavage was found to be 0.58.
To UAACAGGGGGACACAGCAGAAGCGUUCACGUCGCAGCCCCUGUCACAUUCUGGUGAAUCUGCGAAUUCUGCUGUAUAUCUC [C11A G46C] belongs 0.13; to UAACAGGGGGACACAGCAGAAGCGUUCACGUCGCAGCCCCUGUCAGAUUCUGGUGAAUCUGUGAAUUCUGCUGUAUAUCUC [C11A C62U], 0; to UAACAGGGGGACACAGCAGAAGCGUUCACGUCGCAGCCCCUGUCAGACUCUGGUGAAUCUGCGAAUUCUGCUGUAUAUCUC [C11A U48C], 0.32.
Take UAACAGGGGGACACAGCAGAAGCGUUCACGUCGCAGCCCCUGUCAGAGUCUGGUGAAUCUGCGAAUUCUGCUGUAUAUCUC [C11A U48G]: the self-cleavage stood at 0.06.
On to UAACAGGGGGACACAGUAGAAGCGUUCACGUCGCAGCCCCUGUCAGAUUCUGGUGAAUCUGCGAAUUCUGCUGUAUAUCUC [C11A C17U], for which the self-cleavage stood at 0.09.
For UAACAGGGGGACACAGCAGAAGCGUUCACGACGCAGCCCCUGUCAGAUUCUGGUGAAUCUGCGAAUUCUGCUGUAUAUCUC [C11A U31A] the value was 0.3; for UAACAGGGGGACACAGCAGAAGCGUUCACGCCGCAGCCCCUGUCAGAUUCUGGUGAAUCUGCGAAUUCUGCUGUAUAUCUC [C11A U31C], 0.23.
For UAACAGGGGGACACAGCAGAAGCGUUCACGUCGCAGCCCCUGUCAGAUUCCGGUGAAUCUGCGAAUUCUGCUGUAUAUCUC [C11A U51C] the value was 0.38; for UAACAGGGGGACACAGCAGAAGCGUUCACGUCGCAGCCCCUGUCAGAUACUGGUGAAUCUGCGAAUUCUGCUGUAUAUCUC [C11A U49A], 0.11; for UAACAGGGGGACACAGCAGAAGCGUUCACGUCGCAGCCCCUGUCAGAUGCUGGUGAAUCUGCGAAUUCUGCUGUAUAUCUC [C11A U49G], 0.3.
On to UAACAGGGGGACACAGCAGAAGCGUUCACGUCGCAGCCCCUGUCAGAUUCUGGCGAAUCUGCGAAUUCUGCUGUAUAUCUC [C11A U54C], for which the self-cleavage was determined as 0.17.
In the case of UAACAGGGGGACACAGCAGAAGCGUUCACGUCGCAGCCCCUGUCAGAUUCUGGGGAAUCUGCGAAUUCUGCUGUAUAUCUC [C11A U54G], the self-cleavage is 0.21.
As to UAACAGGGGGACACAGCAGAAGCGUUCACGUCGCAGCCCCUGUCAGAUUCUGGAGAAUCUGCGAAUUCUGCUGUAUAUCUC [C11A U54A], the self-cleavage was found to be 0.43.
Take UAACAGGGGGACACAGCAGAAGCGUUCACGUCGCAGCCCCUGUCAGAUUCUGGUGAAUCUGCGAAUUAUGCUGUAUAUCUC [C11A C68A]: the self-cleavage worked out at 0.14.
To UAACAGGGGGACACAGCAGAAGCAUUCACGUCGCAGCCCCUGUCAGAUUCUGGUGAAUCUGCGAAUUCUGCUGUAUAUCUC [C11A G24A] belongs 0.09; to UAACAGGGGGACACAGCAGAAGGGUUCACGUCGCAGCCCCUGUCAGAUUCUGGUGAAUCUGCGAAUUCUGCUGUAUAUCUC [C11A C23G], 0.13; to UAACAGGGGGACACAGCAGAAGUGUUCACGUCGCAGCCCCUGUCAGAUUCUGGUGAAUCUGCGAAUUCUGCUGUAUAUCUC [C11A C23U], 0.06.
In the case of UAACAGGGGGACACAGCAGAAGCGUACACGUCGCAGCCCCUGUCAGAUUCUGGUGAAUCUGCGAAUUCUGCUGUAUAUCUC [C11A U26A], the self-cleavage was found to be 0.3.
For UAACAGGGGGACACAGCAGAAGCGUCCACGUCGCAGCCCCUGUCAGAUUCUGGUGAAUCUGCGAAUUCUGCUGUAUAUCUC [C11A U26C] the value was 0.18; for UAACAGGGGGACACAGCAGAAGCGUUCACGUCGCAGCCCCUGUCAGAUUCUGGUGAAUCUGCGUAUUCUGCUGUAUAUCUC [C11A A64U], 0.06; for UAACAGGGGGACACAGCAGAAGCGUUCACGUCACAGCCCCUGUCAGAUUCUGGUGAAUCUGCGAAUUCUGCUGUAUAUCUC [C11A G33A], 0.07.
UAACAGGGGGACACAGCAGAAGCGUUCACGUCGCAGCCCCUGUCAGAUUCUGGUGAAUCUGCGAAUUCUGCUGUAUAUCUG [C11A C81G]: the self-cleavage came to 0.39.
As for UAACAGGGGGACACAGCAGAAGCGUUCACGUCGCAGCCCCUGUCAGAUUCUGGUGAAUCUGCGAAUUCUGCUGUAUAUCUU [C11A C81U], the self-cleavage was 0.52.
For UAACAGGGGGACACAGCAGAAGCGAUCACGUCGCAGCCCCUGUCAGAUUCUGGUGAAUCUGCGAAUUCUGCUGUAUAUCUC [C11A U25A] the value was 0.45; for UAACAGGGGGACACAGCAGAAGCGCUCACGUCGCAGCCCCUGUCAGAUUCUGGUGAAUCUGCGAAUUCUGCUGUAUAUCUC [C11A U25C], 0.25.
With UAACAGGGGGACACAGCAGAAGCGUUCACGUCGCAGCCCCUGUCAGAUUCUGGUGAAUCUGCGAGUUCUGCUGUAUAUCUC [C11A A65G], the self-cleavage is 0.26.
As for UAACAGGGGGACACAGCAGAAGCGUUCACGUCGCAGCCCCUGUCAGAUUCUGGUGAAUCUGCGAUUUCUGCUGUAUAUCUC [C11A A65U], the self-cleavage was found to be 0.18.
To UAACAGGGGGACACAGCAGAAGCGUUCACGUCGCAGCCCCUGUAAGAUUCUGGUGAAUCUGCGAAUUCUGCUGUAUAUCUC [C11A C44A] belongs 0.13.
